Results from article PMC4980424, “Glucansucrase Gtf180-ΔN of Lactobacillus reuteri 180: enzyme and reaction engineering for improved glycosylation of non-carbohydrate molecules” (Applied Microbiology and Biotechnology, 2016).
Changes are numbered by the printed parent chain. Names may count otherwise.

B1: Gtf180-ΔN (Limosilactobacillus reuteri) (protein)
chain: INGQQYYIDPTTGQPRKNFLLQNGNDWIYFDKDTGAGTNALKLQFDKGTISADEQYRRGNEAYSYDDKSIENVNGYLTADTWYRPKQILKDGTTWTDSKETDMRPILMVWWPNTVTQAYYLNYMKQYGNLLPASLPSFSTDADSAELNHYSELVQQNIEKRISETGSTDWLRTLMHEFVTKNSMWNKDSENVDYGGLQLQGGFLKYVNSDLTKYANSDWRLMNRTATNIDGKNYGGAEFLLANDIDNSNPVVQAEELNWLYYLMNFGTITGNNPEANFDGIRVDAVDNVDVDLLSIARDYFNAAYNMEQSDASANKHINILEDWGWDDPAYVNKIGNPQLTMDDRLRNAIMDTLSGAPDKNQALNKLITQSLVNRANDNTENAVIPSYNFVRAHDSNAQDQIRQAIQAATGKPYGEFNLDDEKKGMEAYINDQNSTNKKWNLYNMPSAYTILLTNKDSVPRVYYGDLYQDGGQYMEHKTRYFDTITNLLKTRVKYVAGGQTMSVDKNGILTNVRFGKGAMNATDTGTDETRTEGIGVVISNNTNLKLNDGESVVLHMGAAHKNQKYRAVILTTEDGVKNYTNDTDAPVAYTDANGDLHFTNTNLDGQQYTAVRGYANPDVTGYLAVWVPAGAADDQDARTAPSDEAHTTKTAYRSNAALDSNVIYEGFSNFIYWPTTESERTNVRIAQNADLFKSWGITTFELAPQYNSSKDGTFLDSIIDNGYAFTDRYDLGMSTPNKYGSDEDLRNALQALHKAGLQAIADWVPDQIYNLPGKEAVTVTRSDDHGTTWEVSPIKNVVYITNTIGGGEYQKKYGGEFLDTLQKEYPQLFSQVYPVTQTTIDPSVKIKEWSAKYFNGTNILHRGAGYVLRSNDGKYYNLGTSTQQFLPSQLSVQDNEGYGFVKEGNNYHYYDENKQMVKDAFIQDSVGNWYYFDKNGNMVANQSPVEISSNGASGTYLFLNNGTSFRSGLVKTDAGTYYYDGDGRMVRNQTVSDGAMTYVLDENGKLVSESFDSSATEAHPLKPGDLNGQK
notes: N-terminally truncated Gtf180 (ΔN)
B2: Gtf180-ΔN (Limosilactobacillus reuteri; L938F) (protein)
chain: B1 chain with L197F
notes: as for B1
B3: Gtf180-ΔN (Limosilactobacillus reuteri; L981A) (protein)
chain: B1 chain with L240A
notes: as for B1
B4: Gtf180-ΔN (Limosilactobacillus reuteri; N1029M) (protein)
chain: B1 chain with N288M
notes: as for B1

Legend:
[1] = substrate: OC[C@H]1O[C@H](Oc2ccccc2O)[C@H](O)[C@@H](O)[C@@H]1O; experiment: initial rates by TLC densitometry; Michaelis-Menten fit; format: biochemical, Limosilactobacillus reuteri; settings: acceptor substrate, 1000 mM sucrose as donor, pH 4.7, 37 °C
Excerpt: initial rates by TLC densitometry; Michaelis-Menten fit on Gtf180-ΔN

[2] = substrate: Oc1ccccc1O; experiment: initial rates of catechol-G1 formation by TLC densitometry; Michaelis-Menten fit; format: biochemical, Limosilactobacillus reuteri; settings: acceptor substrate, 1000 mM sucrose as donor, pH 4.7, 37 °C
Excerpt: initial rates of catechol-G1 formation by TLC densitometry; Michaelis-Menten fit on Gtf180-ΔN

| Protein | Km [1] [mM] | kcat [1] [s⁻¹] | kcat/Km [1] [M⁻¹ s⁻¹] | Km [2] [mM] | kcat [2] [s⁻¹] | kcat/Km [2] [M⁻¹ s⁻¹] |
| --- | --- | --- | --- | --- | --- | --- |
| B1 | 88.8 ± 17.1 | 863 ± 39.3 | 10200 | – | – | – |
| B2 | 91.1 ± 7.3 | 576 ± 44 | 6300 | 85.5 ± 4.0 | 1870 ± 74.7 | 21900 |
| B3 | – | – | – | 11.0 ± 1.3 | 203 ± 8.1 | 18700 |
| B4 | – | – | – | 58.9 ± 6.4 | 449 ± 4.9 | 7700 |
